# From US20190041402A1 (GOVERNING COUNCIL OF THE UNIVERSITY OF TORONTO, published 2019)
# T1: mouse αKlotho (mouse, UniProt O35082 35-982)
# T1 construct: also called Mu aKL
# T1 sequence (looked up): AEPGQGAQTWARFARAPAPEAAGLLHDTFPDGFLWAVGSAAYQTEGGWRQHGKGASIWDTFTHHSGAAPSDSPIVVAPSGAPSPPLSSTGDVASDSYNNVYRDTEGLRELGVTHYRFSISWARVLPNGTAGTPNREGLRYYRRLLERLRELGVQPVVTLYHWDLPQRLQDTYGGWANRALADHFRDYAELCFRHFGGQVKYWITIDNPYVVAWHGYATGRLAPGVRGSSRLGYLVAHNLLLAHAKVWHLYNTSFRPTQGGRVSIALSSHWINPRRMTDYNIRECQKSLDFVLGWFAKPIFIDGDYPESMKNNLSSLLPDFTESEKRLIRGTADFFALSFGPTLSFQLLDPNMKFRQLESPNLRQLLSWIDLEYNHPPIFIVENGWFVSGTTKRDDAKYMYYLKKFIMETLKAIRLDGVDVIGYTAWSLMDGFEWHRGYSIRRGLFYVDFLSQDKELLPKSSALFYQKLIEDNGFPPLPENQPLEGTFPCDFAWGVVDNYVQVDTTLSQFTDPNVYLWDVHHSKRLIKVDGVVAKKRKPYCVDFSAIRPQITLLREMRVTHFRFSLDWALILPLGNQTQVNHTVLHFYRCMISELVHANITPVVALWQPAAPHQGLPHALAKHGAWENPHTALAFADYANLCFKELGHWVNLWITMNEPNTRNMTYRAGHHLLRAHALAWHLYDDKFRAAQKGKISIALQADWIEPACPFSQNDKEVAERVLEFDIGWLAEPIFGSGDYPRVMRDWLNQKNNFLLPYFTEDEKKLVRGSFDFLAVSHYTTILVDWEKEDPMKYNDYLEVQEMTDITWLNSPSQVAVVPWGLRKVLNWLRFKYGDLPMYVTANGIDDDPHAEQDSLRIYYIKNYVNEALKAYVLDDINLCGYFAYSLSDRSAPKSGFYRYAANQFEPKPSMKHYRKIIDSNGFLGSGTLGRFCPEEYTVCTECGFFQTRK
# T2: human FGFR1c ligand-binding domain (human, UniProt P11362 142-365)
# T2 construct: range 142-365; also called FGFR1c alone
# T2 sequence (looked up): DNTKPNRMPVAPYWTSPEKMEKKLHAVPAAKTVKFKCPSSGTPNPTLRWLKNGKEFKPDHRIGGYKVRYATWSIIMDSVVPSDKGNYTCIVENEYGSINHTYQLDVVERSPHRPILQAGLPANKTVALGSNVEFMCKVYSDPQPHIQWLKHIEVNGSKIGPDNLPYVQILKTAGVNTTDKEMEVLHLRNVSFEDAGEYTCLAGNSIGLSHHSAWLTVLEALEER
# T3: soluble human αKlotho (recombinant) (human, UniProt Q9UEF7 34-981)
# T3 construct: also called Hu aKL; recombinant human αKlotho
# T3 sequence (looked up): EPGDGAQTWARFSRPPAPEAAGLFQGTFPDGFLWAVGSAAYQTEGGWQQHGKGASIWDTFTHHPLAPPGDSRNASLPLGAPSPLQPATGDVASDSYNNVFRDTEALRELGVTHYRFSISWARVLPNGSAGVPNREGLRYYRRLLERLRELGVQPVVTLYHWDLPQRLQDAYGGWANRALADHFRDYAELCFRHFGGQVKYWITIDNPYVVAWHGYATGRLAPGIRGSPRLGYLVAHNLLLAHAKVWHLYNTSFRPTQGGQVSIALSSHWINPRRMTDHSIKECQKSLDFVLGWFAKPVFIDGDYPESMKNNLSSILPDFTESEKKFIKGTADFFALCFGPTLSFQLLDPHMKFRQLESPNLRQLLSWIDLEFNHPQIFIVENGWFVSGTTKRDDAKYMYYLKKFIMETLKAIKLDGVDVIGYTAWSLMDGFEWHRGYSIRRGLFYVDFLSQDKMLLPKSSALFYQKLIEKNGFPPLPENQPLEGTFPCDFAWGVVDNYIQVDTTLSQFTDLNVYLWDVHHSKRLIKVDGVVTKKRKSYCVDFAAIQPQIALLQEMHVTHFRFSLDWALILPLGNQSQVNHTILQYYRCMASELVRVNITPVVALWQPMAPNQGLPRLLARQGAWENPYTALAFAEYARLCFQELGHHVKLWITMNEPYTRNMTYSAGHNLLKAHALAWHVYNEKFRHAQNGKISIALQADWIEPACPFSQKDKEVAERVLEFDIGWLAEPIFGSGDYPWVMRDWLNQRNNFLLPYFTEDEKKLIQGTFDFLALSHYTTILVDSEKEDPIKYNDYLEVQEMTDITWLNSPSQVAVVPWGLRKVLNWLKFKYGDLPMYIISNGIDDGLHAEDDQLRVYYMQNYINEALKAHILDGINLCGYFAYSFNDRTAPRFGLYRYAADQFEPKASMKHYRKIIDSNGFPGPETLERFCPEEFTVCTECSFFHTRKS
# B1: sb106 Fab (Fab, V domains shown)
# VH: EVQLVESGGGLVQPGGSLRLSCAASGFNISYYSIHWVRQAPGKGLEWVAYISPSYGYTSYADSVKGRFTISADTSKNTAYLQMNSLRAEDTAVYYCARYYVYASHGWAGYGMDYWGQGTLVTVSS
# VL: DIQMTQSPSSLSASVGDRVTITCRASQSVSSAVAWYQQKPGKAPKLLIYSASSLYSGVPSRFSGSRSGTDFTLTISSLQPEDFATYYCQQAGYSPITFGQGTKVEIKR
# notes: also called Fsb106; clone 48
# Assays:
# mouse αKlotho = target: T1, mouse αKlotho; assay: SPR (ProteOn XPR36), Fab captured by anti-IgG(H+L), mouse αKlotho injected in serial dilutions, Langmuir fit [continued) C.]
# Procedure: (§1) Estimated affinities against human and mouse antigen for select αKlotho Fabs were obtained by surface plasmon resonance on a ProteOn XPR36 (FIG. 17). Fabs were captured using an anti-IgG(H+L) antibody and serial dilutions of αKlotho were injected. Binding curves were fitted to the Langmuir model. (A) Determined Kon, Koff and KD values. (B) and (C) Binding curves for human and mouse antigen respectively.
# [1] = target: T2, human FGFR1c ligand-binding domain; assay: Fab-phage ELISA, immobilised antigen
# bovine serum albumin = target: T4, bovine serum albumin (bovine, UniProt P02769 25-607); assay: Fab ELISA, Fab 5 ug/ml on immobilised antigen, anti-Flag-HRP, A450
# T4 construct: also called BSA
# T4 sequence (P02769 25-607 limits assumed): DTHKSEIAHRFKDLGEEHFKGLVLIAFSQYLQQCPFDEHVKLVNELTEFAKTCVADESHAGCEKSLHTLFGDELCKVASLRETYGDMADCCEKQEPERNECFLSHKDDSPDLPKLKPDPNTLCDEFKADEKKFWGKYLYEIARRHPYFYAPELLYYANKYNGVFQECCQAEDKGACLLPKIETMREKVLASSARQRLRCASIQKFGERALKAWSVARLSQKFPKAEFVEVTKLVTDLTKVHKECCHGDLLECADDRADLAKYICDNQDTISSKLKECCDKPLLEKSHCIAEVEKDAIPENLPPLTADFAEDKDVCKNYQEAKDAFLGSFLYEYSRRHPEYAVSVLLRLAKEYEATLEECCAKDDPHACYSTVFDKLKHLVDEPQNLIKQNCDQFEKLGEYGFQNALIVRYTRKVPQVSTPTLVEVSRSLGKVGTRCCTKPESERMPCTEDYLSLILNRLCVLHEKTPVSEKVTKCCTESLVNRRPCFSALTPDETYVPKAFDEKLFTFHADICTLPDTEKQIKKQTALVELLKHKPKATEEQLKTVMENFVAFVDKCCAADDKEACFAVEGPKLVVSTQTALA
# Procedure: (§2) Fab ELISA using both human and mouse αKlotho was carried out for assessing cross-reactivity to human and mouse αKlotho (FIG. 16). Fabs (5 ug/ml) were incubated with immobilized αKlotho human, mouse, or neutravidin (NA) and SBA as negative controls. After washing off unbound Fab, bound Fab were detected using an HRP-conjugated anti-Flag antibody (Fabs have Falg tag on the end of their light chains). Colorimetric HRP reagents allow for absorbance readings at 450 nm.
# neutravidin = target: T5, neutravidin (UniProt P02701 25-152); assay: as above
# T5 construct: also called NA; NAV
# T5 sequence (P02701 25-152): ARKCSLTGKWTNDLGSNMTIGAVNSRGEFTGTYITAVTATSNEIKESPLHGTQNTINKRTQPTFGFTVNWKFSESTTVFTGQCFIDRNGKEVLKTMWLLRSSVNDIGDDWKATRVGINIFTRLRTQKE
# Procedure: as §2
# [2] = target: T3, soluble human αKlotho (recombinant); assay: SPR (ProteOn XPR36), Fab captured by anti-IgG(H+L), human αKlotho injected in serial dilutions, Langmuir fit
# Procedure: as §1
binder,measurement,setting,value
B1,Kd,mouse αKlotho,0.784 nM
same,koff,mouse αKlotho,0.000159 s⁻¹
same,kon,mouse αKlotho,202000 M⁻¹ s⁻¹
same,binding result,[1],no binding
same,binding result,bovine serum albumin,no binding (tested: 5 ug/ml)
same,binding result,neutravidin,no binding (tested: 5 ug/ml)
same,Kd,[2],1.02 nM
same,koff,[2],0.000315 s⁻¹
same,kon,[2],308000 M⁻¹ s⁻¹
